Consider six molecules from US7662583B2, “Bioreactor containing cells expressing glycosyltransferase nucleic acids isolatable from Arabidopsis” (The University of York, priority 2003, dated 2010).

Data set [1] can be described thus: UGT enzyme reaction with quercetin (recombinant UGTs, HPLC). It counts as biochemical, Arabidopsis. The conditions noted are these: 0.5 mM quercetin, 5 mM UDP-glucose, 30° C.; for Specific activity (nkat/mg protein) 3-O-glc: quercetin glucosylated at 3-OH; for Specific activity (nkat/mg protein) 3′-O-glc: quercetin glucosylated at 3′-OH; for Specific activity (nkat/mg protein) 4′-O-glc: quercetin glucosylated at 4′-OH; for Specific activity (nkat/mg protein) 7-O-glc: quercetin glucosylated at 7-OH. In outline: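 Recombinant Arabidopsis UGTs (2 μg) incubated with 0.5 mM quercetin and 5 mM UDP-glucose in 100 mM Tris-HCl pH 7.0 at 30 °C for 1 h. Quercetin glucosides separated from aglycone by reverse-phase C18 HPLC (acetonitrile gradient, 0.1% TFA), detected at 370 nm.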

A short description of data set [2]: Whole-cell biocatalyst assay, E. coli expressing UGT in culture medium. Format: cell-based. The conditions noted are these: E. coli, 2x YT medium, 0.1 mM IPTG, 0.1 mM quercetin, 24 h; for Culture medium (μg/ml in supernatant) 3-O-glc: no added UDP-glucose. The protocol:
FIG. 14 Whole-cell biocatalyst assay using UGT71C1. E. coli cells expressing recombinant were used in the biocatalyst assay. After incubation with 0.1 mM quercetin and 0.1 mM IPTG, cells were collected by centrifugation, extracted with 80% methanol and both the cell extracts (pellet) and culture medium (supernatant) were analysed using HPLC. (A) Changes in the combined amounts of aglycone/glucoside over a time-course of 0-48 h. (B) Changes in the level of different glucosides and aglycone in the culture medium over the same time-course.
Using the foundation established in the preceding example, we went on to investigate the potential of E. coli expressing plant UGTs as whole-cell biocatalysts to synthesise glucosides of quercetin. In the first instance, we used E. coli grown in 75 ml of standard culture medium. […] Table 2 describes results in which 7 different UGTs are expressed in E. coli and the identity and quantity of different glucosides recovered in the medium were analysed by HPLC. […] There was considerable variation in the level of different glucosides synthesised by the cells, although even under these non-optimised conditions, each of the four monoglucosides and two di-O-glucosides could be formed.

Data set [3] in a line: UGT enzyme reaction with cytokinins. It counts as biochemical. The settings on record: for Cytokinin products formed by the UGTs: 7-N-glucoside / Cytokinin products formed by the UGTs: 9-N-glucoside: cytokinins, 0.5 mM, 30° C., 3 h. The method, then: The assay mix (200 μl) contained 2 μg of recombinant protein, 100 mM Tris-HCl, pH 8.0, 5 mM UDP-glucose 0.5 mM ATP, 50 mM MgCl2, and 0.5 mM of cytokinin. The reaction was carried out at 30° C. for 3 h, and was quick-frozen and stored at −20° C. prior to the reverse-phase HPLC analysis
Reverse-phase HPLC (SpectraSYSTEM HPLC systems and UV6000LP Photodiode Array Detector, ThermoQuest) analysis was carried using a Columbus 5μ C18 column (250×4.60 mm, PHENOMENEX). Quercetin glucosides were separated from the aglycone by a linear gradient of 10-75% acetonitrile in H2O (all solution contained 0.1% trifluoroacetic acid) at 1 ml/mm over 20 mm and monitored at 370 nm. Cytokinin glucosides were separated from their aglycone by a liner gradient of 10-100% methanol in H2O (for N6-isopentenyladenine (iP), N6-benzyladenine and kinetin) or 10-60% methanol in H2O (for trans-zeatin and dihydrozeatin) at 1 ml/min over 20 mm. All solution contained 0.25% acetic acid and 0.04% triethylamine, trifluoroacetic acid. The separation was monitored at 206 nm and 252 nm. The identity of the products was confirmed by comparison with authentic gluco sides.
• 1. 7-N-glucoside (76C1, 76C2) • 2. 9-N-glucoside (76C1, 76C2) • 3. O-glucoside (only apply to trans-Zeatin and dihydrozeatin) (85A1 for trans-Zeatin; 85A1 and 73C5 for dihydrozeatin) Large Scale Fermentation

B1: UGT78D2: Arabidopsis recombinant glycosyltransferase, FIG. 5 (protein, listed as Arabidopsis thaliana)
chain: MTKPSDPTRDSHVAVLAFPFGTHAAPLLTVTRRLASASPSTVFSFFNTAQSNSSLFSSGDEADRPANIRVYDIADGVPEGYVFSGRPQEAIELFLQAAPENFRREIAKAETEVGTEVKCLMTDAFFWFAADMATEINASWIAFWTAGANSLSAHLYTDLIRETIGVKEVGERMEETIGVISGMEKIRVKDTPEGVVFGNLDSVFSKMLHQMGLALPRATAVFINSFEDLDPTLTNNLRSRFKRYLNIGPLGLLSSTLQQLVQDPHGCLAWMEKRSSGSVAYISFGTVMTPPPGELAAIAEGLESSKVPFVWSLKEKSLVQLPKGFLDRTREQGIVVPWAPQVELLKHEATGVFVTHCGWNSVLESVSGGVPMICRPFFGDQRLNGRAVEVVWEIGMTIINGVFTKDGFEKCLDKVLVQDDGKKMKCNAKKLKELAYEAVSSKGRSSENFRGLLDAVVNII
In the case of B1, in data set [1], the “Specific activity (nkat/mg protein) 3-O-glc” value came to 31.60 nkat/mg protein; the “Specific activity (nkat/mg protein) 3′-O-glc” value was “— (Activity lower than 0.02 nkat/mg protein has been considered as trace activity and is not shown in the Table.)”; the “Specific activity (nkat/mg protein) 4′-O-glc” value is “— (Activity lower than 0.02 nkat/mg protein has been considered as trace activity and is not shown in the Table.)”; the “Specific activity (nkat/mg protein) 7-O-glc” value is “— (Activity lower than 0.02 nkat/mg protein has been considered as trace activity and is not shown in the Table.)”. For the same molecule, the “Culture medium (μg/ml in supernatant) 3-O-glc” value in data set [2] came to 6.83 µg/mL.

B2: UGT73C5: Arabidopsis recombinant glycosyltransferase, FIG. 11 (protein, listed as Arabidopsis thaliana)
chain: MVSETTKSSPLHFVLFPFMAQGHMIPMVDIARLLAQRGVIITIVTTPHNAARFKNVLNRAIESGLPINLVQVKFPYLEAGLQEGQENIDSLDTMERMIPFFKAVNFLEEPVQKLIEEMNPRPSCLISDFCLPYTSKIAKKFNIPKILFHGMGCFCLLCMHVLRKNREILDNLKSDKELFTVPDFPDRVEFTRTQVPVETYVPAGDWKDIFDGMVEANETSYGVIVNSFQELEPAYAKDYKEVRSGKAWTIGPVSLCNKVGADKAERGNKSDIDQDECLKWLDSKKHGSVLYVCLGSICNLPLSQLKELGLGLEESQRPFIWVIRGWEKYKELVEWFSESGFEDRIQDRGLLIKGWSPQMLILSHPSVGGFLTHCGWNSTLEGITAGLPLLTWPLFADQFCNEKLVVEVLKAGVRSGVEQPMKWGEEEKIGVLVDKEGVKKAVEELMGESDDAKERRRRAKELGDSAHKAVEEGGSSHSNISFLLQDIMELAEPNN
With B2, in data set [1], the “Specific activity (nkat/mg protein) 3-O-glc” value is “— (Activity lower than 0.02 nkat/mg protein has been considered as trace activity and is not shown in the Table.)”; the “Specific activity (nkat/mg protein) 3′-O-glc” value was “— (Activity lower than 0.02 nkat/mg protein has been considered as trace activity and is not shown in the Table.)”; the “Specific activity (nkat/mg protein) 4′-O-glc” value is 0.25 nkat/mg protein; the “Specific activity (nkat/mg protein) 7-O-glc” value is recorded as 0.11 nkat/mg protein. Moreover, the “Cytokinin products formed by the UGTs: O-glucoside” value in data set [3] (substrate dihydrozeatin) was “O-glucoside”.

B3: UGT89B1: Arabidopsis recombinant glycosyltransferase (protein, UniProt Q9C9B0 1-473, looked up)
Flavonol …: MKVNEENNKPTKTHVLIFPFPAQGHMIPLLDFTHRLALRGGAALKITVLVTPKNLPFLSPLLSAVVNIEPLILPFPSHPSIPSGVENVQDLPPSGFPLMIHALGNLHAPLISWITSHPSPPVAIVSDFFLGWTKNLGIPRFDFSPSAAITCCILNTLWIEMPTKINEDDDNEILHFPKIPNCPKYRFDQISSLYRSYVHGDPAWEFIRDSFRDNVASWGLVVNSFTAMEGVYLEHLKREMGHDRVWAVGPIIPLSGDNRGGPTSVSVDHVMSWLDAREDNHVVYVCFGSQVVLTKEQTLALASGLEKSGVHFIWAVKEPVEKDSTRGNILDGFDDRVAGRGLVIRGWAPQVAVLRHRAVGAFLTHCGWNSVVEAVVAGVLMLTWPMRADQYTDASLVVDELKVGVRACEGPDTVPDPDELARVFADSVTGNQTERIKAVELRKAALDAIQERGSSVNDLDGFIQHVVSLGLNK
With B3, in data set [1], the “Specific activity (nkat/mg protein) 3-O-glc” value was 2.05 nkat/mg protein; the “Specific activity (nkat/mg protein) 3′-O-glc” value is “— (Activity lower than 0.02 nkat/mg protein has been considered as trace activity and is not shown in the Table.)”; the “Specific activity (nkat/mg protein) 4′-O-glc” value was 3.38 nkat/mg protein; the “Specific activity (nkat/mg protein) 7-O-glc” value came out at 3.22 nkat/mg protein. Further, in data set [2], the “Culture medium (μg/ml in supernatant) 4′-O-glc” value was 0.94 µg/mL, the “Culture medium (μg/ml in supernatant) 7-O-glc” value came out at 2.36 µg/mL and the “Culture medium (μg/ml in supernatant) 3-O-glc” value is 1.08 µg/mL.

B4: UGT76C1: glycosyltransferase, FIG. 9, glucosylates cytokinins (protein, listed as Arabidopsis thaliana)
chain: MEKRNERQVILFPLPLQGCINPMLQLAKILYSRGFSITIIHTRFNAPKSSDHPLFTFLQIRDGLSESQTQSRDLLLQLTLLNNNCQIPFRECLAKLIKPSSDSGTEDRKISCVIDDSGWVFTQSVAESFNLPRFVLCAYKFSFFLGHFLVPQIRREGFLPVPDSEADDLVPEFPPLRKKDLSRIMGTSAQSKPLDAYLLKILDATKPASGIIVMSCKELDHDSLAESNKVFSIPIFPIGPFHIHDVPASSSSLLEPDQSCIPWLDMRETRSVVYVSLGSIASLNESDFLEIACGLRNTNQSFLWVVRPGSVHGRDWIESLPSGFMESLDGKGKIVRWAPQLDVLAHRATGGFLTHNGWNSTLESICEGVPMICLPCKWDQFVNARFISEVWRVGIHLEGRIERREIERAVIRLMVESKGEEIRGRIKVLRDEVRRSVKQGGSSYRSLDELVDRISIIIEPLVPT
For the molecule B4, in data set [3], the “Cytokinin products formed by the UGTs: 7-N-glucoside” value is listed as 7-N-glucoside and the “Cytokinin products formed by the UGTs: 9-N-glucoside” value is 9-N-glucoside.

B5: UGT76C2: glycosyltransferase, FIG. 10, glucosylates cytokinins (protein, listed as Arabidopsis thaliana)
chain: MEEKRNGLRVILFPLPLQGCINPMLQLANILHVRGFSITVIHTRFNAPKASSHPLFTFLQIPDGLSETEIQDGVMSLLAQINLNAESPFRDCLRKVLLESKESERVTCLIDDCGWLFTQSVSESLKLPRLVLCTFKATFFNAYPSLPLIRTKGYLPVSESEAEDSVPEFPPLQKRDLSKVFGEFGEKLDPFLHAVVETTIRSSGLIYMSCEELEKDSLTLSNEIFKVPVFAIGPFHSYFSASSSSLFTQDETCILWLDDQEDKSVIYVSLGSVVNITETEFLEIACGLSNSKQPFLWVVRPGSVLGAKWIEPLSEGLVSSLEEKGKIVKWAPQQEVLAHRATGGFLTHNGWNSTLESICEGVPMICLPGGWDQMLNSRFVSDIWKIGIHLEGRIEKKEIEKAVRVLMEESEGNKIRERMKVLKDEVEKSVKQGGSSFQSIETLANHILLL
Consider B5, for which, in data set [3], the “Cytokinin products formed by the UGTs: 7-N-glucoside” value is recorded as 7-N-glucoside and the “Cytokinin products formed by the UGTs: 9-N-glucoside” value is recorded as 9-N-glucoside.

B6: UGT85A1: glycosyltransferase, FIG. 12, glucosylates cytokinins (protein, listed as Arabidopsis thaliana)
chain: MGSQIIHNSQKPHVVCVPYPAQGHINPMMRVAKLLHARGFYVTFVNTVYNHNRFLRSRGSNALDGLPSFRFESIADGLPETDMDATQDITALCESTMKNCLAPFRELLQRINAGDNVPPVSCIVSDGCMSFTLDVAEELGVPEVLFWTTSGCAFLAYLHFYLFIEKGLCPLKDESYLTKEYLEDTVIDFIPTMKNVKLKDIPSFIRTTNPDDVMISFALRETERAKRASAIILNTFDDLEHDVVHAMQSILPPVYSVGPLHLLANREIEEGSEIGMMSSNLWKEEMECLDWLDTKTQNSVIYINFGSITVLSVKQLVEFAWGLAGSGKEFLWVIRPDLVAGEEAMVPPDFLMETKDRSMLASWCPQEKVLSHPAIGGFLTHCGWNSILESLSCGVPMVCWPFFADQQMNCKFCCDEWDVGIEIGGDVKREEVEAVVRELMDGEKGKKMREKAVEWQRLAEKATEHKLGSSVMNFETVVSKFLLGQKSQD
As for B6, the “Cytokinin products formed by the UGTs: O-glucoside” value in data set [3] (substrate dihydrozeatin) and in data set [3] (substrate trans-Zeatin) was “O-glucoside” each time.
